{"source": "a protein production outcome set (Wang et al. 2014)", "data": [{"assay": "label from the status in PepcDB records", "values": [{"sequence": "MDALTVGELRRRVHALVLGKRQRVYSGAMFLVEVVHHPELSAMLGLEDNKLLLAMIAQRLQMQSDYFQVARHSSDSFMVWAPDLDPRSARDVAPEVLDALSQPYELRGQPLIVGFRLSGALYAQHGACFDELERSLHIAMLHLDESAGAAWNMFEPSMLEHQRHYQGLEHHHHHH", "protein production": "not failed"}, {"sequence": "MDAVKKAILGEVLEEEEAYEVMRALMAGEVSPVRAAGLLVALSLRGERPHEIAAMARAMREAARPLRVHRRPLLDIVGTGGDGKGLMXLSTLAALVAAAGGVAVAKHGXRAASSRAGSADLLEALGVDLEAPPERVGEAIEELGFGFLFARVFHPAMRHVAPVRAELGVRTVFXLLGPLTXPAGADAYVLGVFSPEWLAPMAEALERLGARGLVVHGEGADELVLGEXRVVEVGKGAYALTPEEVGLKRAPLEALKGGGPEEXAALARRLLKGEEKGPLADAVALAAGAGFYAAGKTPSLKEGVALAREVLASGEAYLLLERYVAFLRA", "protein production": "not failed"}, {"sequence": "MDCKKVIADYWNLRSSTYTNGENGFDAEERIIWRRMLENFLPPGQRLKVLDVGTGPGFLALLFAEMGHEVTAVDISMGMLEKARNNAKTLGVKVDLFHGDAEKLPFEDCYFDLVVNKYLLWTLPQPEIAVQEWMRVLKPGGRVFAIDGNWFNPRPDKKVKRWITGVVNPDMNKNPSRSFFNEFYGPIRKALPLYEDISPENVSVVFSKMGFENTAVNPLQEAQKFKKSKLPFIQRFLRDTPIFLITGQKATE", "protein production": "failed"}, {"sequence": "MDDKTAGGKIVMNKEQLLLFMENRRKQEDHRLALAKEATRSEMVDRKASGKIIMNHDQQLMFNEDHRLAVKKASRSEMVDLEGMGSEASVIMSNVPQPTSFSEDHKLAIKNIISKIVKEIRDRDHPA", "protein production": "failed"}, {"sequence": "MDDLKTRVITASVVAPFVVLCFVSYESLIGLVSAILILAGYELITLEMKERDARFFYVILLALYPVLYGLVFEEPTQPLSILFITGVVFSLITDKDPSQVFKTVAAFSIALIYVTFFLSFFLPIYRDFGAANALLVLTSTWVFDSFAYFTGLKFGRTRISPRYSPRKSLEGVIGGFLGVVIYTFLYRLVVNDLLSVNVISFRTFLPFAATVAIMDTFGDIFESALKRHYGVKDSGKTLPGHGGMLDRIDGLLFVAPVSYIVFKILEGVVR", "protein production": "failed"}, {"sequence": "MDDLNPLAGTAHLLEEVDKKLMVLLRDGRTLIGYLRSVDQFANLVLQRTIERIHVGNEYGDIPRGVFIIRGENVVLLGEIDREKEQKLPLKEISVDEILDAQRREQEQRQEKHRLVSKALKERGLAVDANIINEDFC", "protein production": "failed"}, {"sequence": "MDDWEDEKIAPLPAKVELKSNWDDEDVDENEIKDSWEDDDDEPAQPPVINPAPEKAPKKAAPKTVEKKGKAVEVPKEAPKEKPLDPIAEKLRQQRLVEEADYRATAELFGVKDDDKNLDMFIPKSESDFLEYAEMISHRIKPYEKSYHYIALLKTIMRLSLTNMKAADVKDVASSITTIANEKLKAEKEAAAGKKKGGKKKQLIVDKANDDLVAGPYDAMDDFDFM", "protein production": "failed"}, {"sequence": "MDEIKIEKLKKLDKKALNELIDVYMSGYEGLEEYGGEGRDYARNYIKWCWKKASDGFFVAKVGDKIVGFIVCDKDWFSKYEGRIVGAIHEFVVDKKFQGKGIGRKLLITCLDFLGKYNDTIELWVGEKNYGAMNLYEKFGFKKVGKSGIWVRMIKRQNL", "protein production": "not failed"}, {"sequence": "MDEILARAGIFQGVEPSAIAALTKQLQPVDFPRGHTVFAEGEPGDRLYIIISGKVKIGRRAPDGRENLLTIMGPSDMFGELSIFDPGPRTSSATTITEVRAVSMDRDALRSWIADRPEISEQLLRVLARRLRRTNNNLADLIFTDVPGRVAKQLLQLAQRFGTQEGGALRVTHDLTQEEIAQLVGASRETVNKALADFAHRGWIRLEGKSVLISDSERLARRAR", "protein production": "not failed"}, {"sequence": "MDEKKIPRSLQAIIAQVKAHYADDQELQTLFEQCFLNTYLTTIQEDEQGTFVVTGDIPAMWLRDSSAQVRPYLTVVKEDADMARMIKGVIERQWRYILHDPYANAFNQTANKQGHQQDRTEMSPLVWERKYELDSLCYPIQLAYLYWKATGDDSVLQPTLKQVLETIYRIWKIEQDHEAKSSYSFERDDCRVSDTLLRKGKGGYSVPTGMTWSGFRPSDDACLYGYLIPANMFAVVVSNYAVELLTAMEEIKLAEEFRELEADIRQGIGQYGKMDHPVYGEIYVYETDGNGRVNLMDDANVPSLLAIPYLGYTTADDPVYQNTRRFILSRDNPYYYEGSYAKGVGSPHTPDHYVWHISLAIQGMTAIDSKEKKQIVAMFKQTHADTYFMHEGFDVDRPEQYTRSWFAWANSMFSEFLLSEAGIYVPGSPLENMKNNKAGDRHVLSTGKAAKPNQ", "protein production": "failed"}, {"sequence": "MDELFTESAKAVLAIAQEEAKYFRHQSVGSEHLLLALVLEPNGIAGKTLRQLNTDTEDIREEIEHLSGYGTMQSPMGNNNLYLPYSPRAKQIFAYAGDEAKRLGAQKIGTEHLLLGLLRDEEILASRILVNLGLSLSKMRQLLLKKMG", "protein production": "not failed"}, {"sequence": "MDELRELLKGEQQGIKILKEVLKKAKEGDEQELARLNQEIVKGEKQGVKVYKEAAEKARNPEKRQVIDKILEDEEKHIEWHKAASKQGNAEQFASLVQQHLQDEQRHVEEIEKKNLEHHHHHH", "protein production": "not failed"}, {"sequence": "MDETEHMPRYTLTLVDSTGAMEPLILMDDDLKSIAAKLEGRVSAKTRGRRPRGTGGISATPKGYRAYSTVTDPLTGKDHRVSGFGRTRSQAEARLKEKLAEFDRTHRVGYVRPPTVAEWMDHWLTDVCKPRLKPRTWGTYASVIANNIVPSIGAVRLDELKPAHFRRMERYVMDEQGKSSGTAGSAWRTLHKALEDAVLEGVIERNPAVKGTAPRVALKERAALTPEQAADLIAAETDDTWRLMWMLAFMTGMRQGERLGLTEDELRRDGDRLIILVEWQAQHLTKREVEGLPKGVECTPLGNGMYRTRPKTEKGRRAIPLPEALADQLLAYIERHGVNGDGLVFHDDRGLPLTGCVERRRWYRALDRVGLGHEYVPHSARHTTATILNRLGLDDVTRTAIMGHSRVSTTNEIYTHVELDRLVAATDGVERAIEG", "protein production": "failed"}, {"sequence": "MDETGNLTVSSATCHDTIDDFRNQVYSTLYSMISVVGFFGNGFVLYVLIKTYHKKSAFQVYMINLAVADLLCVCTLPLRVVYYVHKGIWLFGDFLCRLSTYALYVNLYCSIFFMTAMSFFRCIAIVFPVQNINLVTQKKARFVCVGIWIFVILTSSPFLMAKPQKDEKNNTKCFEPPQDNQTKNHVLVLHYVSLFVGFIIPFVIIIVCYTMIILTLLKKSMKKNLSSHKKAIGMIMVVTAAFLVSFMPYHIQRTIHLHFLHNETKPCDSVLRMQKSVVITLSLAASNCCFDPLLYFFSGGNFRKRLSTFRKHSLSSVTYVPRKKASLPEKGEEICKV", "protein production": "failed"}, {"sequence": "MDEVLKEILSSYQKRALKLTKRVRKKIFKNDPTENQKKAIKIALNTPDIAIIQGPPGTGKTTVINAICERLFEEYPKDKNIKGQILLCAQGHDATNNARERIKVGGLPTFKFGAKKNAKEEQYKQDERLNERLREFAETLIESVRKKLQKLGDYENIEKILDLEEALRRYYSSPISELEFLKEIEKNESFF", "protein production": "failed"}, {"sequence": "MDFDYTIKALKTKKKLDAKPNTHTDFVYTTKALRSRKKLDTKPNIHTDFGYAIKAWRSKKKLDIVLESNMTRYMCMIEYKN", "protein production": "failed"}, {"sequence": "MDFKSSDAIRGPRTEDHLPHTAQAAVKIVIVGGFGVGKTTMVGSVSEIRPLTTEETMTQMGIGVDDNYGSESKTATTVAMDFGRISITEQLVLYLFGTPGQERFWFLWNGLFEGALGAVVLIDTRRLEVSFDVIGRLEERGVPFVIAVNDFPDAPRYPVEDLRGALDLTEDIPIVKCDARRRASSREVLMTLMHFLHSLAVSKTSVLEHHHHHH", "protein production": "failed"}, {"sequence": "MDFLTKLAIAFLIGIMVGVEREHRGLEHEIFAGVRSYSITCITGMLVALASESIGTGFVYVSTLFFAAMCSIITYSKIFLFKRIGVTSPITLFFIFVMGVLVGYDYGLFAIVSSIVVAFLLIQKQPLHQFAGNLTKEELYNAIQFLAVAFILYPVMPEKQFFGLLNLRYAILIVILVSLISFSSYVLLRKFGTKRGLYYSGFLGGFINSEATTGALAGLSKKAEEMAAPVITGILLCNISMLIRNLVLAFIVDPTGRTTMLMLLPQLVLIIVSIGMAYRHSKKVCPIGGGELKIQSPFSLGQAFKFGIAFTLILVIGNFAYNAAGTTGIYLTALGALVSSSGVIVSVTLLAVSGNISYEVAANTAVIASLVSTVNKILLSKISGSSSLFSLAIKDFGIIAATGTLALVILNFL", "protein production": "failed"}]}]}
